This is an account of results in doi:10.1101/2025.08.22.671821, “Cross-regulation of (p)ppGpp and c-di-GMP pathways controls a cell-cycle transition” (bioRxiv, 2025).

The data set concerns the molecule itself. As to the kind of experiment: crystal structure; PleD 5 mg/mL with 0.5 µM c-di-GMP and 5 mM ppGpp or pppGpp; sitting-drop vapor diffusion at 19°C; space group P6(1)22, 4 molecules per asymmetric unit; 2.9 Å (ppGpp) and 3 Å (pppGpp).

B1: PleD diguanylate cyclase from Caulobacter crescentus (enzyme)
chain: MSARILVVDDIEANVRLLEAKLTAEYYEVSTAMDGPTALAMAARDLPDIILLDVMMPGMDGFTVCRKLKDDPTTRHIPVVLITALDGRGDRIQGLESGASDFLTKPIDDVMLFARVRSLTRFKLVIDELRQREASGRRMGVIAGAAARLDGLGGRVLIVDDNERQAQRVAAELGVEHRPVIESDPEKAKISAGGPVDLVIVNAAAKNFDGLRFTAALRSEERTRQLPVLAMVDPDDRGRMVKALEIGVNDILSRPIDPQELSARVKTQIQRKRYTDYLRNNLDHSLELAVTDQLTGLHNRRYMTGQLDSLVKRATLGGDPVSALLIDIDFFKKINDTFGHDIGDEVLREFALRLASNVRAIDLPCRYGGEEFVVIMPDTALADALRIAERIRMHVSGSPFTVAHGREMLNVTISIGVSATAGEGDTPEALLKRADEGVYQAKASGRNAVVGKAA
notes: PleD, response regulator and diguanylate cyclase of Caulobacter crescentus (receiver domain D1, adaptor domain D2, DGC domain); expressed from pET11b-pleD; In the crystals each monomer carries two c-di-GMP at the I-site, and one (p)ppGpp and a Mg2+ in the active site; also called PleDCC; source: E. coli BL21(DE3), purified (Ni-NTA, SEC)
As for B1, the binding result is reported as “binds”.
